Measured values published in paper PMC8809517, “Cofactor-independent RNA editing by a synthetic S-type PPR protein”.
Positions count from the first letter of the chain named.

T1: GFP-9S library array, motif 4 ND N98G;D124I (synthetic construct, N98G;D124I)
T1 chain: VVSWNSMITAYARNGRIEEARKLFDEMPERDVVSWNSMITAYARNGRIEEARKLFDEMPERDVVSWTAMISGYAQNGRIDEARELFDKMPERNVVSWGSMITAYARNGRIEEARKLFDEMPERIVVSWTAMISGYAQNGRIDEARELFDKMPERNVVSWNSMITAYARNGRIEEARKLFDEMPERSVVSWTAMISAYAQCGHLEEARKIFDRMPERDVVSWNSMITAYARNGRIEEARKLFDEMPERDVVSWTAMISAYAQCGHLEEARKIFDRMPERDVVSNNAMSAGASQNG

T2: GFP-9S library array, motif 4 ND N98I;D124C (synthetic construct, N98I;D124C)
T2 chain: T1 chain with G98I, I124C

T3: GFP-9S library array, motif 4 ND N98Q;D124N (synthetic construct, N98Q;D124N)
T3 chain: T1 chain with G98Q, I124N

T4: GFP-9S library array, motif 4 ND D124T (synthetic construct, D124T)
T4 chain: T1 chain with G98N, I124T

T5: GFP-9S library array, motif 4 ND N98M;D124T (synthetic construct, N98M;D124T)
T5 chain: T1 chain with G98M, I124T


Columns and labels:
Assay in all cases: high-throughput RNA pulldown from lysate on Ni-NTA beads; HRP: 50 mM Tris pH 8, 150 mM NaCl, 1 mM beta-mercaptoethanol, 50 ug/ml BSA, 3 ug/ml yeast RNA, 0.5% heparin; ITC and FP: Tris pH 8, 200 mM KCl, 5% glycerol; MST: 50 mM Tris pH 8, 200 mM NaCl, 1 mM DTT, BSA, heparin, 0.05% Tween 20
Conditions in all cases: tags: N-terminal His-eGFP
[1] = target: T1, GFP-9S library array, motif 4 ND …
[2] = target: T2, GFP-9S library array, motif 4 ND …
[3] = target: T3, GFP-9S library array, motif 4 ND …
[4] = target: T4, GFP-9S library array, motif 4 ND D124T
[5] = target: T5, GFP-9S library array, motif 4 ND …

Binder | Kd ([1]; label: 5' Cy5) [nM] | Kd ([2]; label: 5' Cy5) [nM] | Kd ([3]; label: 5' Cy5) [nM] | Kd ([4]; label: 5' Cy5) [nM] | Kd ([5]; label: 5' Cy5) [nM] | Kd ([1]; label: 5' IRDye 800CW) [nM] | Kd ([2]; label: 5' IRDye 800CW) [nM] | Kd ([3]; label: 5' IRDye 800CW) [nM] | Kd ([4]; label: 5' IRDye 800CW) [nM] | Kd ([5]; label: 5' IRDye 800CW) [nM]
AUUAGACGUGA (ssRNA) [Cy5-rpoA-G] | 113 | 90.6 | 68.6 | 291 | 115 |  |  |  |  | 
AUUAAACGUGA (ssRNA) [IR-rpoA-A] |  |  |  |  |  | 315 | 42.5 | 118 | 215 | 116
AUUAUACGUGA (ssRNA) [IR-rpoA-U] |  |  |  |  |  | 205 | 32.9 | 99.2 | 24.6 | 109
AUUACACGUGA (ssRNA) [Cy5-rpoA] | 105 | 182 | 94.7 | 8.35 | 124 |  |  |  |  | 
